Drawing on patent US20070110748A1, this text covers concentration of soluble Fn for one substance.

Experiment [1] has as its target FnBP purified from S. aureus strain Newman (Staphylococcus aureus). The experiment in a line: competition ELISA on FnBP-coated wells; competitor anti-D121-34 F(ab')2 at 100 µg/ml.
Experiment [2] has the same target. The experiment in a line: competition ELISA on FnBP-coated wells; competitor anti-D320-33 F(ab')2 at 100 µg/ml.

Chain of Human plasma Fn, P02751 32-2296 (ligand) (P02751 other isoform, or with tags, fused parts or gaps limits assumed): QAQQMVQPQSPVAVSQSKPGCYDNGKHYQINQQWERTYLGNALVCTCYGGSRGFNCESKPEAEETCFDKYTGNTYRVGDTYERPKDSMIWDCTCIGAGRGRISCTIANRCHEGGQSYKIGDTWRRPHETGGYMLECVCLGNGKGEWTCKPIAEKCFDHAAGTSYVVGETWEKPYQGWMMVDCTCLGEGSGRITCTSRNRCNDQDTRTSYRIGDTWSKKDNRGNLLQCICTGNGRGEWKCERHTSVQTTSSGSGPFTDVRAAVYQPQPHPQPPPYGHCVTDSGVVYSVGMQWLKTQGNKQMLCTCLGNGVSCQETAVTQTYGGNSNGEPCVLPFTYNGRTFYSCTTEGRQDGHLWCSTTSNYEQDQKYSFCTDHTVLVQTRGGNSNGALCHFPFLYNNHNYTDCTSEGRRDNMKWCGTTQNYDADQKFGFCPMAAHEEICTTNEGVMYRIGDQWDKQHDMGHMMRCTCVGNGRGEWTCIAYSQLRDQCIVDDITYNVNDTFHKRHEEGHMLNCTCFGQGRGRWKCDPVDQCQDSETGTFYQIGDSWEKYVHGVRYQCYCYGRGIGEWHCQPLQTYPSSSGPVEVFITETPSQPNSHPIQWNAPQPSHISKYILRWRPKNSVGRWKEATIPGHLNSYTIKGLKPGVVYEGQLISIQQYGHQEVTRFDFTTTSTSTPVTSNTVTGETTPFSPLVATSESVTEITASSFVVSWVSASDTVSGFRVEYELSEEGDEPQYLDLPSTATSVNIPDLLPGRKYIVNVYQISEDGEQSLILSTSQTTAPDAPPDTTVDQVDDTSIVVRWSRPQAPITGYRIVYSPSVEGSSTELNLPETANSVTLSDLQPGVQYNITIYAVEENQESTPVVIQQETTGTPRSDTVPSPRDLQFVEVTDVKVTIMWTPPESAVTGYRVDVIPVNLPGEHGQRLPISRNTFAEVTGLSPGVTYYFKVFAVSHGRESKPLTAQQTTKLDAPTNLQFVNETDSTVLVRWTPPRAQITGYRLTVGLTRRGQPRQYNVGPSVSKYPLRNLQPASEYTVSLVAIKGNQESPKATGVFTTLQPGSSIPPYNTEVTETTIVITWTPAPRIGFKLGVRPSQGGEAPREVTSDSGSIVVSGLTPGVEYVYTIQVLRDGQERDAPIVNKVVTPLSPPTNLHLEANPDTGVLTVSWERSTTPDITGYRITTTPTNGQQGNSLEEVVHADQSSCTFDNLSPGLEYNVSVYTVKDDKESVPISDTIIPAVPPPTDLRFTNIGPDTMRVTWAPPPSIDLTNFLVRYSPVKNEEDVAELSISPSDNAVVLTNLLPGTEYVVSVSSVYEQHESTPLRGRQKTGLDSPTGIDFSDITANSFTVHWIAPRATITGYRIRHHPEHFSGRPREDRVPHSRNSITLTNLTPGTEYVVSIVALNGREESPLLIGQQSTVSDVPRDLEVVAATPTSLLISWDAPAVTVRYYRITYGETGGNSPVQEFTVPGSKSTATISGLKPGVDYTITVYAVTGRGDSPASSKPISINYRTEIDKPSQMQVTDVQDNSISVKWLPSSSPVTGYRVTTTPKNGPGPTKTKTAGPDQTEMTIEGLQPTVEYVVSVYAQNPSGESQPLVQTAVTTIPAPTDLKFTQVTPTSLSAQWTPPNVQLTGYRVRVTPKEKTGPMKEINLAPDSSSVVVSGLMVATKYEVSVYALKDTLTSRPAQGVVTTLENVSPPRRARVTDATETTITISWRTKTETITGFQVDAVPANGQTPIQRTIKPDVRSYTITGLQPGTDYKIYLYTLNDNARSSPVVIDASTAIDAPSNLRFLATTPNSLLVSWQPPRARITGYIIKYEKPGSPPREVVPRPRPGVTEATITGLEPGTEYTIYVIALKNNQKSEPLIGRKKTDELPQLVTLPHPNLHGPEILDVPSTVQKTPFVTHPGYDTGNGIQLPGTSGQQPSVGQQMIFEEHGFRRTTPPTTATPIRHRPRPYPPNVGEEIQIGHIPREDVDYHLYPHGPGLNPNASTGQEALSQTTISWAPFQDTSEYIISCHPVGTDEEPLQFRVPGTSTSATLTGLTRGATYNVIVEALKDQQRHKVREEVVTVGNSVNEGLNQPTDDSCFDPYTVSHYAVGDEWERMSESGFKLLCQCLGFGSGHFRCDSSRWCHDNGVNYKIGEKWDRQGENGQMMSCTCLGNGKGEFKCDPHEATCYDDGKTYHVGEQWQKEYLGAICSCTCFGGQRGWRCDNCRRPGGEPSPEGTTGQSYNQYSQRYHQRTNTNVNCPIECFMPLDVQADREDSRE

On to “Human plasma Fn, P02751 32-2296 (ligand)”, for which the concentration of soluble Fn at which F(ab')2 recognition of FnBP was virtually eliminated in experiment [1] and in experiment [2] was 50 µg/mL each time.
